The target in test [1] is T1 mechanosensitive channel from Thermoplasma volcanium (Thermoplasma volcanium). Put plainly: cross-linking; chemical crosslinking; the sample of T1 is not told (only T2 is shown, Figure 2 D).
Test [2] concerns the target His-tagged T2 mechanosensitive channel from Thermoplasma volcanium (Thermoplasma volcanium). Kind of test: cross-linking; chemical crosslinking of the T2 channel in crude membranes; ladder of five bands.
Test [3] has the same target. Kind of test: far-Western, overlay or dot blot; channel samples run on SDS-PAGE and blotted on nitrocellulose (His-tagged T1 0.1 µg, His-tagged T2 0.1 µg, tag free T2 0.01 and 0.1 µg); strips incubated with nanobody at 1 µg/ml for 1 hour, bound His-tagged nanobody detected with HisProbe-HRP; intensity ratio of lane 2 of the sample strip to the reference strip.
Test [4] deals with T1, T2 mechanosensitive channel from Thermoplasma volcanium, tag free (Thermoplasma volcanium).
T1 construct: TVN0821, gene amplified from genomic DNA (DSM 4299 [GSS1*]); 297 amino acids per monomer; Cloned into pNIC28-Bsa4 (TEV site) and pET46 (Enterokinase site); In detergent (0.03 % DDM); also called T2 channel; tag free T2-channel; source: E. coli C43(DE3), purified (DDM solubilised, IMAC, tag cleavage, second IMAC, gel filtration); not shown: His-tag, N-terminal, cleaved
T1 chain: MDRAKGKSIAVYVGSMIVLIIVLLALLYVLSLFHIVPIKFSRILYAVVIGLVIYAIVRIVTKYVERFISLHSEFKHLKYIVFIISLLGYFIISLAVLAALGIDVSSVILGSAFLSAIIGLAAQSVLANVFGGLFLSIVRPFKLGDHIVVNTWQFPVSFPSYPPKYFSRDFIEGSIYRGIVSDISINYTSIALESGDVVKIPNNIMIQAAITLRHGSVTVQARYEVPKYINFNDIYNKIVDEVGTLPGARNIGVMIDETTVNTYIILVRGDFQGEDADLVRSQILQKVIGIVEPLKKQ
Kind of test: SPR; BIAcore 3000, 25 °C, 20 mM sodium phosphate pH 7.4, 150 mM NaCl, 0.03 % DDM; T2 channel amine-coupled on CM5 (1500 - 2000 RU); nanobodies 0.35 - 86.1 nM injected in triplicates; global fit to a simple bimolecular model, KD = kd/ka. The following applies: both partners purified.

The values that follow come from paper PMC3804602, “Nanobody Mediated Crystallization of an Archeal Mechanosensitive Channel” (PLoS ONE, 2013).

For the molecule “T1 mechanosensitive channel from Thermoplasma volcanium (natural protein)”, the stoichiometry N (commonly a count of units in the complex or per binding partner) in test [1] amounted to 5.
Regarding “His-tagged T2 mechanosensitive channel from Thermoplasma volcanium (natural protein)”, the stoichiometry N in test [2] stood at 5.

B1: nanobody 16 (VHH)
VHH: QVQLQESGGGLVQPGGSLTLSCAASGSPFSFGAMGWYRQAPGKQRELVAIITSGGSTNYADSVKGRFTVSRDNAKNTVYLQMNSLKPEDTAVYYCYHQTAPVADVTWGQGTQVTVSS
notes: pHEN6 vector; also called Nb 16; CA-number 3398; source: E. coli WK6 periplasm, purified (IMAC, gel filtration); not shown: His-tag, C-terminal, kept
On to B1, for which the ratio of WB intensities in test [3] came to 1.98. Further, in test [4], the dissociation constant Kd (usually the equilibrium constant for the complex coming apart) was determined as 7.4 nM; the koff (as a rule, the first-order rate constant of dissociation) was 0.0055 s⁻¹; the on-rate (kon) (usually the rate constant with which the complex forms) amounted to 750000 M⁻¹ s⁻¹.
